Article PMC4238996 (PLoS Neglected Tropical Diseases, 2014)
Substitutions are numbered along the chain they refer to.

T1: GST-tagged MupFHA (Mup018c, residues 1-362), wild type (M. ulcerans Agy99 (plasmid pMUM001), UniProt Q6MZ86 1-362)
T1 construct: also called MupFHA^wt; GST-MupFHA
T1 sequence: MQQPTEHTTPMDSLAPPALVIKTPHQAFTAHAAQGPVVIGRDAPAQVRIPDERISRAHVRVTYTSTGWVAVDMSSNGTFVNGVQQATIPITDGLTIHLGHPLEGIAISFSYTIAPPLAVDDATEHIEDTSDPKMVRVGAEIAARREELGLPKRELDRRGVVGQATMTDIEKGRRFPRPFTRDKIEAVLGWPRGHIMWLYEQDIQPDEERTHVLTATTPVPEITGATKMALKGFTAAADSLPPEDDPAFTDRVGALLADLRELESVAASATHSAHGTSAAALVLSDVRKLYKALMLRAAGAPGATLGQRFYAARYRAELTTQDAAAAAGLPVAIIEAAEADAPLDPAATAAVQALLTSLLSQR

B1: MBP-tagged MupDivIVA S43/45/49A triple mutant (natural protein)
chain: MSHSELLDPALPKSPFGKQGYRYDDVDVFLRLIADELQGSDLAEADIHAITFRCAAPLTRGYDTESVDRFLDRIAETIARGHGDEGQ
B2: MBP-tagged MupDivIVA-P (Mup012c residues 1-87, phosphorylated by co-expression with PknQ) (natural protein, M. ulcerans Agy99 (plasmid pMUM001), UniProt Q6MZ92 1-87, looked up)
chain: B1 chain with A43S, A45S, A49S
notes: also called phosphorylated MupDivIVA

Molecular target: T1, GST-tagged MupFHA (Mup018c, residues …)
Assay: ELISA
Details: both partners purified

Binder | binding result
B1 | binds
B2 | binds
